Measured values published in patent US20230381281A1, “PHARMACEUTICAL COMPOSITION COMPRISING GLUCAGON/GLP-1/GIP TRIPLE AGONIST OR LONG-ACTING CONJUGATE THEREOF FOR PREVENTING OR TREATING LUPUS-RELATED DISEASES” (HANMI PHARM. CO., LTD., priority 2020, published 2023).
Bridge positions count the residues as written; N and C are the ends. Square brackets hold non-standard residues; d marks the D form. Ends that are not written are not given here. * marks the point of attachment. Acetyl(2-(4-imidazolyl)) = O=C(Cc1c[nH]cn1)*; Aib = CC(C)(N)C(=O)O

T1: human GIP receptor (human, UniProt P48546 22-466)
T1 sequence (looked up): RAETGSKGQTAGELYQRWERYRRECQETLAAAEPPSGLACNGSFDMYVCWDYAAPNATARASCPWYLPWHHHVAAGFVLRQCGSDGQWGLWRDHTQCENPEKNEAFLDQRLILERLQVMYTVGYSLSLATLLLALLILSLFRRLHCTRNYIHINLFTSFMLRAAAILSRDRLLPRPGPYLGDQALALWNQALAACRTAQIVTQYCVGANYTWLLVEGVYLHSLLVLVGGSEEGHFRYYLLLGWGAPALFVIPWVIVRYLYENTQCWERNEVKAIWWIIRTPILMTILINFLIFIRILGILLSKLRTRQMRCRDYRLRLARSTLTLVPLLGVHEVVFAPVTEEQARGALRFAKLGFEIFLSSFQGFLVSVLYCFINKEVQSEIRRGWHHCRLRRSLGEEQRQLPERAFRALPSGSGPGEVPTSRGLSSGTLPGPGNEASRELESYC

B1: Triple agonist of SEQ ID NO: 68 (peptide)
peptide: Y[Aib]QGTFTSDYSKCLDEKAAKEFVQWLLDHHPSSGQPPPS
modifications: bridge 16-20
B2: Triple agonist of SEQ ID NO: 69 (peptide)
peptide: Y[Aib]QGTFTSDYSKCLDERAAKEFVQWLLDHHPSSGQPPPS
modifications: bridge 16-20
B3: Triple agonist of SEQ ID NO: 85 (peptide)
peptide: {Acetyl(2-(4-imidazolyl))}-[Aib]QGTFTSDYSIAMDEIHQKDFVNWLLAQC
modifications: bridge 15-19
B4: Triple agonist of SEQ ID NO: 75 (peptide)
peptide: Y[Aib]QGTFTSDYSKYLDEKAAKEFVQWLLDHHPSSGQPPPSC
modifications: bridge 16-20
B5: Triple agonist of SEQ ID NO: 74 (peptide)
peptide: {Acetyl(2-(4-imidazolyl))}-[Aib]QGTFTSDYSKCLDEKRAKEFVQWLLDHHPSSGQPPPS
modifications: bridge 15-19
B6: Triple agonist of SEQ ID NO: 73 (peptide)
peptide: {Acetyl(2-(4-imidazolyl))}-[Aib]QGTFTSDYSKYLDECRAKEFVQWLLDHHPSSGQPPPS
modifications: bridge 15-19
B7: Triple agonist of SEQ ID NO: 76 (peptide)
peptide: Y[Aib]QGTFTSDYSKYLDEKRAKDFVQWLLDHHPSSGQPPPSC
modifications: bridge 16-20
B8: Triple agonist of SEQ ID NO: 63 (peptide)
peptide: {Acetyl(2-(4-imidazolyl))}-[Aib]QGTFTSDCSKYLDERAAQDFVQWLLDGGPSSGAPPPS
B9: Triple agonist of SEQ ID NO: 80 (peptide)
peptide: H[Aib]EGTFTSDYSIAMDEIHQKDFVDWLLAEKC
modifications: bridge 16-20
B10: Triple agonist of SEQ ID NO: 70 (peptide)
peptide: Y[Aib]QGTFTSDYSKCLDEKRAKDFVQWLLDHHPSSGQPPPS
modifications: bridge 16-20
B11: Triple agonist of SEQ ID NO: 86 (peptide)
peptide: {Acetyl(2-(4-imidazolyl))}-[Aib]QGTFTSDYSKYLDEKRQKEFVNWLLAQC
modifications: bridge 15-19
B12: Triple agonist of SEQ ID NO: 84 (peptide)
peptide: {Acetyl(2-(4-imidazolyl))}-[Aib]EGTFTSDYSIAMDEIHQKDFVDWLLAEC
modifications: bridge 15-19
B13: Triple agonist of SEQ ID NO: 77 (peptide)
peptide: Y[Aib]QGTFTSDYSKYLDEKAAKDFVQWLLDHHPSSGQPPPSC
modifications: bridge 16-20
B14: Triple agonist of SEQ ID NO: 82 (peptide)
peptide: {Acetyl(2-(4-imidazolyl))}-[Aib]QGTFTSDYSKYLDEKRQKEFVQWLLDTC
modifications: bridge 15-19
B15: Triple agonist of SEQ ID NO: 71 (peptide)
peptide: Y[Aib]QGTFTSDYSKYLDERACKDFVQWLLDHHPSSGQPPPS
modifications: bridge 16-20
B16: Triple agonist of SEQ ID NO: 62 (peptide)
peptide: {Acetyl(2-(4-imidazolyl))}-[Aib]QGTFTSDKSKYLDERAAQDFVQWLLDGGPSSGAPPPS
B17: Triple agonist of SEQ ID NO: 83 (peptide)
peptide: {Acetyl(2-(4-imidazolyl))}-[Aib]EGTFTSDYSIAMDEIHQKDFVNWLLAQC
modifications: bridge 15-19
B18: Triple agonist of SEQ ID NO: 8 (peptide)
peptide: H[Aib]QGTFTSDVSKYLDGQAAQEFVAWLLKGC
B19: Triple agonist of SEQ ID NO: 78 (peptide)
peptide: H[Aib]QGTFTSDYSKYLDEKRQKEFVQWLLDTKC
modifications: bridge 16-20
B20: Triple agonist of SEQ ID NO: 66 (peptide)
peptide: Y[Aib]QGTFTSDYSKYLDECRAKDFVQWLLDHHPSSGQPPPS
modifications: bridge 16-20
B21: Triple agonist of SEQ ID NO: 9 (peptide)
peptide: H[Aib]QGTFTSDVSKYLDGQAAQEFVAWLLAGC
B22: Triple agonist of SEQ ID NO: 7 (peptide)
peptide: H[Aib]QGTFTSDVSKYLDGQAAKEFVAWLLKGC
B23: Triple agonist of SEQ ID NO: 61 (peptide)
peptide: {Acetyl(2-(4-imidazolyl))}-[Aib]QGTFTSDYSIAMDEIACKDFVNWLLNTK
modifications: bridge 15-19
B24: Triple agonist of SEQ ID NO: 67 (peptide)
peptide: Y[Aib]QGTFTSDYSKYLDECAAKDFVQWLLDHHPSSGQPPPS
modifications: bridge (positions not given here); ends not checked; also: ring formation between underlined amino acids, places not given here
B25: Triple agonist of SEQ ID NO: 81 (peptide)
peptide: {Acetyl(2-(4-imidazolyl))}-[Aib]QGTFTSDYSKYLDEKRQKEFVQWLLNTC
modifications: bridge 15-19
B26: Triple agonist of SEQ ID NO: 79 (peptide)
peptide: H[Aib]EGTFTSDYSIAMDEIHQKDFVNWLLAQKC
modifications: bridge 16-20
B27: Triple agonist of SEQ ID NO: 72 (peptide)
peptide: Y[Aib]QGTFTSDCSKYLDERAAKDFVQWLLDHHPSSGQPPPS
modifications: bridge 16-20
B28: Triple agonist of SEQ ID NO: 65 (peptide)
peptide: H[Aib]QGTFTSDYSKCLDEKRAKEFVQWLLDHHPSSGQPPPS
modifications: bridge 16-20
B29: Triple agonist of SEQ ID NO: 64 (peptide)
peptide: Y[Aib]QGTFTSDYSKYLDECAAKEFVQWLLDHHPSSGQPPPS
modifications: bridge 16-20

Target: human GCG receptor (human, UniProt P47871 26-477)
Assay: cell-based or functional assay

Sequence of human GCG receptor (P47871 26-477): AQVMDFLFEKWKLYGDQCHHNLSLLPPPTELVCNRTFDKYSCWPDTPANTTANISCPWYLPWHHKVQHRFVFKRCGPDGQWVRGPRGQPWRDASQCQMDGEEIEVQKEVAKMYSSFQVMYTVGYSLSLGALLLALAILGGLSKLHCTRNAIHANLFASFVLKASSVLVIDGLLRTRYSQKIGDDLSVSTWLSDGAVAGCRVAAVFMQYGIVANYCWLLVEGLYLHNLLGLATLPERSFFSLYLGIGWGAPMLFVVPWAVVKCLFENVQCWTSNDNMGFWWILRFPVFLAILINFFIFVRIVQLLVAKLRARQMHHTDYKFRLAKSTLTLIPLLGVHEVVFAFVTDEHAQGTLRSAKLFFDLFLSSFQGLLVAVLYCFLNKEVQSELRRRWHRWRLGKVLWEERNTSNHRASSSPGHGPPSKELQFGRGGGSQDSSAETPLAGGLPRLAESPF

Binder | In vitro activity compared to native peptide (%) vs Glucagon [%]
B1 | 8.8
B2 | 9.6
B3 | < 0.1
B4 | 8.5
B5 | 0.9
B6 | 5.4
B7 | 47.6
B8 | < 0.1
B9 | 0
B10 | 71.3
B11 | 0.4
B12 | < 0.1
B13 | 12.2
B14 | 1.1
B15 | 12.7
B16 | < 0.1
B17 | 1.3
B18 | 0.1
B19 | 14
B20 | 172
B21 | 0.13
B22 | < 0.1
B23 | < 0.1
B24 | 46.2
B25 | 0.3
B26 | 4.9
B27 | 1
B28 | 25.2
B29 | 60.1

Target: T1, human GIP receptor
Assay: cell-based or functional assay

Binder | In vitro activity compared to native peptide (%) vs GIP [%]
B1 | 107
B2 | 62.8
B3 | 0.3
B4 | 18
B5 | 1
B6 | 3
B7 | 11.7
B8 | < 0.1
B9 | 0.1
B10 | 64.4
B11 | 0.2
B12 | < 0.1
B13 | 35.5
B14 | < 0.1
B15 | 94.7
B16 | < 0.1
B17 | 0.4
B18 | < 0.1
B19 | 0.12
B20 | 17.2
B21 | < 0.1
B22 | < 0.1
B23 | 2.8
B24 | 39.8
B25 | < 0.1
B26 | 1.4
B27 | 1.6
B28 | 11.6
B29 | 92.9

Target: human GLP-1 receptor (human, UniProt P43220 24-463)
Assay: cell-based or functional assay

Binder | In vitro activity compared to native peptide (%) vs GLP-1 [%]
B1 | 27.9
B2 | 24.3
B3 | 4.3
B4 | 35.1
B5 | 12.9
B6 | 22.6
B7 | 10.3
B8 | 15.3
B9 | 8.1
B10 | 15.1
B11 | 28.4
B12 | 4.2
B13 | 38.7
B14 | 9.5
B15 | 90.1
B16 | 5.2
B17 | 47.3
B18 | 14.2
B19 | 51
B20 | 15.8
B21 | 32.1
B22 | 13.7
B23 | 59.8
B24 | 28.5
B25 | 7.8
B26 | 41.5
B27 | 11.5
B28 | 95.4
B29 | 64.6
